Reference: paper PMC10407929, “Determining DNA–Protein Binding Affinities and Specificities from Crude Lysates Using a Combined SILAC/TMT Labeling Strategy”
Where “and” joins values, the source holds several entries; their conditions need not be identical. Equal entries are not always repeated.

Assays:
Assay in all cases: pulldown; 150 mM NaCl, 50 mM Tris pH 8.0, 0.25% NP-40, 1 mM DTT; 4 C, 2 h; 100 ug nuclear extract
Details in all cases: protein: extract; label: 5' biotin (strand 1)
VEZF1 = target: T1, VEZF1 (Homo sapiens, UniProt Q14119)
T1 sequence: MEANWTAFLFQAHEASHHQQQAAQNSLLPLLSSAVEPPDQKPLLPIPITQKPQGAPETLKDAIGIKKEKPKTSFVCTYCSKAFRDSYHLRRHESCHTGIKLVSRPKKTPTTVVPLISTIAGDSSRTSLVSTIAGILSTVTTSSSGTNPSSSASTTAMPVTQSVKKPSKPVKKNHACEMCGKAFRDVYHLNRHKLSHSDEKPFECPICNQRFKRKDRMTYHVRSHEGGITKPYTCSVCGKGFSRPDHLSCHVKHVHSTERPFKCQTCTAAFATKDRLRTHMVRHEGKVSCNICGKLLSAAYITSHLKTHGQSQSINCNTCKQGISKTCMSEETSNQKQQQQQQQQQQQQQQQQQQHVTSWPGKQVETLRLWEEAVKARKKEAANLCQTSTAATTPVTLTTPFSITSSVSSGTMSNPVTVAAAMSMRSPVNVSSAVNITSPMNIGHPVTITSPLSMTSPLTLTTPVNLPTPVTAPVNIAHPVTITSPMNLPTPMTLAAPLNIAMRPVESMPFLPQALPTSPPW

BANP = target: T2, BANP (Homo sapiens, UniProt Q8N9N5)
T2 sequence: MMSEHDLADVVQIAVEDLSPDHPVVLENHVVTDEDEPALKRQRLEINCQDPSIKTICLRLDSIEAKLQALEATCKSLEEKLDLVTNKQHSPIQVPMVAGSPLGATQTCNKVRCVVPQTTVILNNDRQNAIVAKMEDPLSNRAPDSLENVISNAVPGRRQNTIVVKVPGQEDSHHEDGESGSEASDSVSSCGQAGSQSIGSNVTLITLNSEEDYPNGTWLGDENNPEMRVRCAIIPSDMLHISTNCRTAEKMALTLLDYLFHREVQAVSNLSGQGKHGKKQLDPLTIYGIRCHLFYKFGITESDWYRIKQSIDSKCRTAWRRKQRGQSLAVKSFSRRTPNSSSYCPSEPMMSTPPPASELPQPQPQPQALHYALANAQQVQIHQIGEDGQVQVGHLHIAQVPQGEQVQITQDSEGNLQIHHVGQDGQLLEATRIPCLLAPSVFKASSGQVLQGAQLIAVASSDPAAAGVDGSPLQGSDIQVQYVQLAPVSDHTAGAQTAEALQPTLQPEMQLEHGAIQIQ

HOXB9 = HOXB9 (Homo sapiens, UniProt P17482)
MAZ [1] = target: T3, MAZ (Homo sapiens, UniProt P56270)
T3 sequence: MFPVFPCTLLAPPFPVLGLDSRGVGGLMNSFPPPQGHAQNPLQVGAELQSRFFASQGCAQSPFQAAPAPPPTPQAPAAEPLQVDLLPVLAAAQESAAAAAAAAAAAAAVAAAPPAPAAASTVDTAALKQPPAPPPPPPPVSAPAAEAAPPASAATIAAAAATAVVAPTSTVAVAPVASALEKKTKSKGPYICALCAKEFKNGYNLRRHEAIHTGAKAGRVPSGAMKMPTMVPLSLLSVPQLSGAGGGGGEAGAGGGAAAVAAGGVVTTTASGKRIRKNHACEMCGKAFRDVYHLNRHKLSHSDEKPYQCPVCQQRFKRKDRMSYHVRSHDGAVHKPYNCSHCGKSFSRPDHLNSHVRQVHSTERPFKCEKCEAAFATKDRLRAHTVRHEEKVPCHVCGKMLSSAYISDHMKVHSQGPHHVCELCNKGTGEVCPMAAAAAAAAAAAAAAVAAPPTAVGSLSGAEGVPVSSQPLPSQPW

KLF1 = KLF1 (Homo sapiens, UniProt Q13351)
MAZ [2] = target: T4, MAZ (Homo sapiens, UniProt P56270); remark: listed apart in the source
T4 sequence: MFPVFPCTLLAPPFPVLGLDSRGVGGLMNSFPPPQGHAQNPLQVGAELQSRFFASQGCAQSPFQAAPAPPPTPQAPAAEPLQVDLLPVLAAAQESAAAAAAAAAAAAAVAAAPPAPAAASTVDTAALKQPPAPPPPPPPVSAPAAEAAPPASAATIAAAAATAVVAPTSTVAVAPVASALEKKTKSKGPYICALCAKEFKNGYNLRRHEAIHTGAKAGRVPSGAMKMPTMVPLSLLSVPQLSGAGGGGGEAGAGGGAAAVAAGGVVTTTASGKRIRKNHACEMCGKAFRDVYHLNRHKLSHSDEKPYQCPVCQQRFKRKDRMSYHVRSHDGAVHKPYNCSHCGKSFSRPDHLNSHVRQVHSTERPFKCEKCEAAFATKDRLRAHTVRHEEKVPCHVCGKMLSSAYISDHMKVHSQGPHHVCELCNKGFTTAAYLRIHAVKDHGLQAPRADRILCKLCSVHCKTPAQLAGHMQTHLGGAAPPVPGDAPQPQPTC

SP3 = SP3 (Homo sapiens, UniProt Q02447)
TFAP2A = TFAP2A (Homo sapiens, UniProt P05549)
ZNF148 = target: T5, ZNF148 (Homo sapiens, UniProt Q9UQR1)
T5 sequence: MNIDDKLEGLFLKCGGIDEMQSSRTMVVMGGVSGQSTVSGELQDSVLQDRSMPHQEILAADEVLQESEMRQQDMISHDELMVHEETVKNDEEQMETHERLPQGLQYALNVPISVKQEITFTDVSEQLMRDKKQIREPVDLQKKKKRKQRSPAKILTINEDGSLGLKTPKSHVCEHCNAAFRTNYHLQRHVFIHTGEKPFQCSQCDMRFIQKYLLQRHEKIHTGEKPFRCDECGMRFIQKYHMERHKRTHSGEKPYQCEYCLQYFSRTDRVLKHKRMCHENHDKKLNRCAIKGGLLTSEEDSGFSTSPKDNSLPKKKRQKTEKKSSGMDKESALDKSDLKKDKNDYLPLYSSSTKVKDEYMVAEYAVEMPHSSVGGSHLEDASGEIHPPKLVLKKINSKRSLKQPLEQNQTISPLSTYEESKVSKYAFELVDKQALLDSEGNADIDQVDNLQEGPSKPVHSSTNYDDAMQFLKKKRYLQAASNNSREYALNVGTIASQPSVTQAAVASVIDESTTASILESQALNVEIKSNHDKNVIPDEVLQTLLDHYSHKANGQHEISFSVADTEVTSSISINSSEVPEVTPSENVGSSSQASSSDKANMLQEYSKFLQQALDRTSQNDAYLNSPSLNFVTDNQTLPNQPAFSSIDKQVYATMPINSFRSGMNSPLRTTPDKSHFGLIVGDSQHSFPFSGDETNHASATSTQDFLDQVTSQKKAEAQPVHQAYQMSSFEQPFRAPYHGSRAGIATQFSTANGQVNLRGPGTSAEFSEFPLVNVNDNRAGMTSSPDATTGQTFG

SP1 = SP1 (Homo sapiens, UniProt P08047)
KLF12 = KLF12 (Homo sapiens, UniProt Q9Y4X4)
KLF5 = KLF5 (Homo sapiens, UniProt Q13887)
BEND3 = target: T6, BEND3 (Homo sapiens, UniProt Q5T5X7)
T6 sequence: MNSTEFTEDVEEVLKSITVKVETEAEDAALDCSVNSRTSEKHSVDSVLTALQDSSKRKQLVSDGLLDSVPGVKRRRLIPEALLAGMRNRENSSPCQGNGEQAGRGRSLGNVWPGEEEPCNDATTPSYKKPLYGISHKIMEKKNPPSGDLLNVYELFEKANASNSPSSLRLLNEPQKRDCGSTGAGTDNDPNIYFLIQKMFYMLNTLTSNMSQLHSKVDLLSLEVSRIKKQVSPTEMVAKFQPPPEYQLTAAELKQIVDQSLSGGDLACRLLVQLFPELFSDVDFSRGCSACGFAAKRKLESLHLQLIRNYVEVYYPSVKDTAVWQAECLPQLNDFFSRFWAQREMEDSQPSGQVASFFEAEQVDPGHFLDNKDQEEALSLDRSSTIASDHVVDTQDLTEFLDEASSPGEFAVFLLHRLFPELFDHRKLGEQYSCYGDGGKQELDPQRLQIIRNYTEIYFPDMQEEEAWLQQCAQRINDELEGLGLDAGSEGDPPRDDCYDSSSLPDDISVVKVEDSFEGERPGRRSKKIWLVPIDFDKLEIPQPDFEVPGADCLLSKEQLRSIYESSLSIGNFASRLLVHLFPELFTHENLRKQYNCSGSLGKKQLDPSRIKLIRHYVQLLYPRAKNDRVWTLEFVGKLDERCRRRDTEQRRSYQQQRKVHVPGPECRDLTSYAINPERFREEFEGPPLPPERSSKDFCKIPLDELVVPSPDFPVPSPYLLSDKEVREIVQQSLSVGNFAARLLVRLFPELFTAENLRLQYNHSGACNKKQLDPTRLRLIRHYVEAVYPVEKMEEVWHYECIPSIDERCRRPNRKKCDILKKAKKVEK

Chain of SP1 (P08047 whole entry): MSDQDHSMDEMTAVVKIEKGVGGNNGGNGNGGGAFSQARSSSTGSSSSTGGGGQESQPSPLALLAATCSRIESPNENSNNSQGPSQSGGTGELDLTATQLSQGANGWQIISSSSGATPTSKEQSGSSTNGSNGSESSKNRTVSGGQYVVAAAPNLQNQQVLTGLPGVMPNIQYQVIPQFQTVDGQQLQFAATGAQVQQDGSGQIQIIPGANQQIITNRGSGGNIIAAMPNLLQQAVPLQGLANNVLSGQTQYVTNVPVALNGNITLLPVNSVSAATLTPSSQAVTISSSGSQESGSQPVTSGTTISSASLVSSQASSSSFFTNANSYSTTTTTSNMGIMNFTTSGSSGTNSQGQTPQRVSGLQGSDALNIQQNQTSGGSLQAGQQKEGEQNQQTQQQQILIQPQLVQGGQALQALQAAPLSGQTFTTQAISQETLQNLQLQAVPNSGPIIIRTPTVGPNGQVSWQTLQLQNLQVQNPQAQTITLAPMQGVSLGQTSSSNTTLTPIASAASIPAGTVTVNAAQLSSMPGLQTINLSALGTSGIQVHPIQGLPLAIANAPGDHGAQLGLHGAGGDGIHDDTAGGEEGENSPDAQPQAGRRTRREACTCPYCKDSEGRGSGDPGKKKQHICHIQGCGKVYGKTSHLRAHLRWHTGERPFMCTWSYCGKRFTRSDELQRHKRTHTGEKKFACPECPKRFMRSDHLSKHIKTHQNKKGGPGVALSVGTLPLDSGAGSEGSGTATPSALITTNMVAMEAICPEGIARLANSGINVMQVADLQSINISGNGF
Chain of SP3 (Q02447 whole entry): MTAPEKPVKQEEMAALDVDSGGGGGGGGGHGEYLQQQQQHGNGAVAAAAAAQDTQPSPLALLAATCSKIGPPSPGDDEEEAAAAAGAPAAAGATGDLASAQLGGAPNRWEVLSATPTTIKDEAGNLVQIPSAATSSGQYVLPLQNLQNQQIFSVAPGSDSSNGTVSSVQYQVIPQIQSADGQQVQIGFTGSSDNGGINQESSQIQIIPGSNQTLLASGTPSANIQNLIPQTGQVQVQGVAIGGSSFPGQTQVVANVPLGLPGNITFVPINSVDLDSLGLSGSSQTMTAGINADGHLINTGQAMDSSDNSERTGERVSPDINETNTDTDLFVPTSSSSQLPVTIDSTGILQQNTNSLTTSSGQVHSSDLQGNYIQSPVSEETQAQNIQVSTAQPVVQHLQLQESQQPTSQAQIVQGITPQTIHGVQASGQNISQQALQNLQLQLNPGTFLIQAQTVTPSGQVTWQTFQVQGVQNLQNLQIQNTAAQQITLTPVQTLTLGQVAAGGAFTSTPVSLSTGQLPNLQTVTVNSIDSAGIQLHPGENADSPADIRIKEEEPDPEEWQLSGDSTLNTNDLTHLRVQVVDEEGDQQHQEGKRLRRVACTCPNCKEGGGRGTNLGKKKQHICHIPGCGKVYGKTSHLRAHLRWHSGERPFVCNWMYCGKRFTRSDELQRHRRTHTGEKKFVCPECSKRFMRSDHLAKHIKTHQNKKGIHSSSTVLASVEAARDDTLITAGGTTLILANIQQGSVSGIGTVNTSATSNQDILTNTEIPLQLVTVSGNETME
Chain of HOXB9 (P17482 whole entry): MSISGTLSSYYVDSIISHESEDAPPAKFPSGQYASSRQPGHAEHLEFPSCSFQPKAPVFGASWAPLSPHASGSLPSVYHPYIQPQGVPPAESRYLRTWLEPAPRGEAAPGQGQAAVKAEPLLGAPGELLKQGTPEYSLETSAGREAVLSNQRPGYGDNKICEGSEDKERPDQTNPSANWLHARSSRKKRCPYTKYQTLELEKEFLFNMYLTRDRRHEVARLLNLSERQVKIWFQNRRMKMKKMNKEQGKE
Chain of KLF12 (Q9Y4X4 whole entry): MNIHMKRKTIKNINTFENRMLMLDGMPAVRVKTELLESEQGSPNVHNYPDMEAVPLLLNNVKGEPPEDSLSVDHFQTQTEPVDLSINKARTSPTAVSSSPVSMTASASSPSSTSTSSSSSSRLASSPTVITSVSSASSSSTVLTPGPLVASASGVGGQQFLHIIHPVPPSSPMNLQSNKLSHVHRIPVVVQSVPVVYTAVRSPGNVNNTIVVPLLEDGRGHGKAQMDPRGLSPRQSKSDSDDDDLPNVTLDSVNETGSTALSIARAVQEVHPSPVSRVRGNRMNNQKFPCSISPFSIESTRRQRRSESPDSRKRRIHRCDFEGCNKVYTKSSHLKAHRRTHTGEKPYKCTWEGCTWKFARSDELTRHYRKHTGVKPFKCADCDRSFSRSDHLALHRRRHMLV
Chain of KLF5 (Q13887 whole entry): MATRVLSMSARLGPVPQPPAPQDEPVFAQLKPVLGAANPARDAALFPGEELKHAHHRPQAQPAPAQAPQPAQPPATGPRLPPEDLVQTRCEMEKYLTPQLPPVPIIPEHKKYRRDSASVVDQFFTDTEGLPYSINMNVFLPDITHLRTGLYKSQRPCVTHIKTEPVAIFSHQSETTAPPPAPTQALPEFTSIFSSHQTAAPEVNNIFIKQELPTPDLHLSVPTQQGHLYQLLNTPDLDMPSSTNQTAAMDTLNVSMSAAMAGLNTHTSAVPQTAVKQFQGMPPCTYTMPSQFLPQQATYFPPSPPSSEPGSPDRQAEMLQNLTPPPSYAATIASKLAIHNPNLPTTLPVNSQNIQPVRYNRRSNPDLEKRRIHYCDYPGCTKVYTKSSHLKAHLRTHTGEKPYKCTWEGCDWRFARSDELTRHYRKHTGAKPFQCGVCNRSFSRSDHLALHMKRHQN
Chain of TFAP2A (P05549 whole entry): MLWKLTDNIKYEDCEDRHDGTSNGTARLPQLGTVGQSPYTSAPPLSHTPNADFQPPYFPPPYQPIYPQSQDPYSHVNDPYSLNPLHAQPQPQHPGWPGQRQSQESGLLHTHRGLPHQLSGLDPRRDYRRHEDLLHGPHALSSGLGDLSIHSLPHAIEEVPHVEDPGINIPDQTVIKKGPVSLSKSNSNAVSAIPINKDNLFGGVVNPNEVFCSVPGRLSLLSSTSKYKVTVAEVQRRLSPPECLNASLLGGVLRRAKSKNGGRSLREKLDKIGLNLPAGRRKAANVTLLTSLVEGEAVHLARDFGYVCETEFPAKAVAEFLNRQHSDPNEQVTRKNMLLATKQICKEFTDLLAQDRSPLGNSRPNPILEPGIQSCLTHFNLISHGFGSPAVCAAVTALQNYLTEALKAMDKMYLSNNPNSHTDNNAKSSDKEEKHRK
Chain of KLF1 (Q13351 whole entry): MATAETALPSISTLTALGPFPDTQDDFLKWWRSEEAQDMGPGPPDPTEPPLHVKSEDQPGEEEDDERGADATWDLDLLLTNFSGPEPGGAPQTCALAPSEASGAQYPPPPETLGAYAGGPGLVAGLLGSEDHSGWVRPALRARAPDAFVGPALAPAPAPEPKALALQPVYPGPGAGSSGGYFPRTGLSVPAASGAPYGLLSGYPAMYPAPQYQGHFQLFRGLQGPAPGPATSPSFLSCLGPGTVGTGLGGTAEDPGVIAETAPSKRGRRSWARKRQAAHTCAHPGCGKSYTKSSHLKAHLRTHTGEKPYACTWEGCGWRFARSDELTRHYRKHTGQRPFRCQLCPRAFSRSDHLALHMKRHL

B1: SP/KLF negative control bait (dsDNA)
DNA 1: GAGAGAAAATAAAACTGGCT
DNA 2: AGCCAGTTTTATTTTCTCTC
apparent K (half saturation) (VEZF1): > 1180 nM

B2: CGCG bait (dsDNA)
DNA 1: GCCGCCGCCCTTCTCGCGAGACTGCCGGGCC
DNA 2: GGCCCGGCAGTCTCGCGAGAAGGGCGGCGGC
apparent K (half saturation) (BANP): 6.9 nM and 11.3 nM | apparent K (half saturation) (HOXB9): 323 nM | apparent K (half saturation) (MAZ [1]): 203 nM | apparent K (half saturation) (KLF1): 83 nM | apparent K (half saturation) (VEZF1): 333 nM | apparent K (half saturation) (MAZ [2]): 153 nM

B3: SP/KLF bait (dsDNA)
DNA 1: GAGAGCCCCGCCCCCTGGCT
DNA 2: AGCCAGGGGGCGGGGCTCTC
apparent K (half saturation) (SP3): 6.26 nM | apparent K (half saturation) (TFAP2A): 162 nM | apparent K (half saturation) (ZNF148): 54.2 nM | apparent K (half saturation) (SP1): 13.8 nM | apparent K (half saturation) (VEZF1): 90.4 nM

B4: BEND3 bait (dsDNA)
DNA 1: GCCGCCGCCCTCCCACGCGCTGCCGGGCC
DNA 2: GGCCCGGCAGCGCGTGGGAGGGCGGCGGC
apparent K (half saturation) (KLF12): 346 nM | apparent K (half saturation) (SP1): 289 nM | apparent K (half saturation) (MAZ [1]): 56.4 nM | apparent K (half saturation) (VEZF1): 110 nM | apparent K (half saturation) (KLF5): 227 nM | apparent K (half saturation) (BEND3): 166 nM
